Source: paper PMC2747011, “Soybean GmPHD-Type Transcription Regulators Improve Stress Tolerance in Transgenic Arabidopsis Plants”

What was measured:
Details in all cases: protein: recombinant; tags: GST (N-term, pGEX-4T-1); strand 1 has 5' overhang AATT (4 nt) and 3' overhang AGCT (4 nt); strand 2 fully paired
GmPHD4 N domain = target: T1, GmPHD4 N domain (Glycine max, UniProt I1M961 1-114); assay: EMSA; strong; Binding buffer not given (EMSA as in ref. 59); probe annealed in 50 mM NaCl; competitor in ten-fold excess
T1 sequence: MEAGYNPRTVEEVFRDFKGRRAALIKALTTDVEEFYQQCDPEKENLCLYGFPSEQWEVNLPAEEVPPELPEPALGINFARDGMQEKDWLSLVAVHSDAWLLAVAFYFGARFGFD

GmPHD4 NV = target: T2, GmPHD4 NV (Glycine max, UniProt I1M961 1-199); assay: EMSA; Binding buffer not given (EMSA as in ref. 59); probe annealed in 50 mM NaCl; competitor in ten-fold excess
T2 sequence: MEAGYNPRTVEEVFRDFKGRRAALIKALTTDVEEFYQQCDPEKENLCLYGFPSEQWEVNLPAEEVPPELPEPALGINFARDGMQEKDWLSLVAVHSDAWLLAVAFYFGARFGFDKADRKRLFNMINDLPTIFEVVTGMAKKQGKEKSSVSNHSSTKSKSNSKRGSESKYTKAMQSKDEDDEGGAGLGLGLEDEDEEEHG

GST-GmPHD5 = target: T3, GST-GmPHD5 (Glycine max, UniProt Q06A75 1-252); assay: EMSA; reduced by 10x unlabeled probe; Binding buffer not given (EMSA as in ref. 59); probe annealed in 50 mM NaCl; competitor in ten-fold excess
T3 sequence: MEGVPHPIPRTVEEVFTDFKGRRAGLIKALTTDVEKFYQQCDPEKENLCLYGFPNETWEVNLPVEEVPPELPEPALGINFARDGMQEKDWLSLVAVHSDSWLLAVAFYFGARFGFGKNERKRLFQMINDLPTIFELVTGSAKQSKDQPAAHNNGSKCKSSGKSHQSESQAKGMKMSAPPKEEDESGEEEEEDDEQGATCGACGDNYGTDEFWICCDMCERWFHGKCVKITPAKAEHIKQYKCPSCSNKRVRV

GST-GmPHD6 = target: T4, GST-GmPHD6 (Glycine max, UniProt I1L1N8 1-248); assay: as above
T4 sequence: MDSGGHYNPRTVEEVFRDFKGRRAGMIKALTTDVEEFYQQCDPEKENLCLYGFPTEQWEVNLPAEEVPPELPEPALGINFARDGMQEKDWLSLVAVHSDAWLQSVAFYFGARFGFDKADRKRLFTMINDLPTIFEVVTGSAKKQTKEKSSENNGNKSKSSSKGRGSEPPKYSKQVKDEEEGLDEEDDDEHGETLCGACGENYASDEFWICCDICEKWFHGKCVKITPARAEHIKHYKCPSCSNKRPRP

B1: 5x GTGGAG probe (dsDNA)
DNA 1: AATTCGGATCCGTGGAGGTGGAGGTGGAGGTGGAGGTGGAGGGTACCGAGCT
DNA 2: CGGTACCCTCCACCTCCACCTCCACCTCCACCTCCACGGATCCG
Q: Does B1 bind (GmPHD4 N domain)?
A: binds

Q: Does B1 bind (GmPHD4 NV)?
A: no binding

Q: Does B1 bind (GST-GmPHD5)?
A: binds

Q: Does B1 bind (GST-GmPHD6)?
A: binds
